Measurements taken from PMC314469, “Protein Interaction Networks by Proteome Peptide Scanning” (PLoS Biology, 2004).

T1: Yfr024 SH3 (LSB3_YEAST), P43603
T1 chain: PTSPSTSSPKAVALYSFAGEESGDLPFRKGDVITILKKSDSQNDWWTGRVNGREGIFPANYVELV

T2: Boi2 SH3 (BOI2_YEAST), P39969
T2 chain: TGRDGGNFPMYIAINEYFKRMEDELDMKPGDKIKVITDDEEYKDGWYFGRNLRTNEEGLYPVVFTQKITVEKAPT

T3: Rvs167 SH3 (RV167_YEAST), P39743
T3 chain: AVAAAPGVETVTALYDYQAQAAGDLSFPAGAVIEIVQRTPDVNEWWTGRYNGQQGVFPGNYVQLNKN

T4: Yhr016c SH3 (YSC84_YEAST), P32793
T4 chain: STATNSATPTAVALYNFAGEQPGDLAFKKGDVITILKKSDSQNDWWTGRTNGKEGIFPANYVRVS

T5: Boi1 SH3 (BOI1_YEAST), P38041
T5 chain: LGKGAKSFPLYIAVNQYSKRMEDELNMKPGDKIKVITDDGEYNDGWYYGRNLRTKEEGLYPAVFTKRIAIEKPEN


Target: T1, Yfr024 SH3 (LSB3_YEAST), P43603
Test: SPOT array

Point of comparison: HRGPRRPQKNRYNT [YMR280C 1394-1407], normalised SPOT signal, Boehringer light units (BLU); mean over the file's lines of this peptide 1710. Against it:
- IEVPQSPTKNRVKV [YIL150C 61-74] — lower, 176
- HLPPPPPPRAQQQQ [YOR329C 664-677] — higher, 6510
- HLDPEAPDKLLENS [YOR301W 109-122] — lower, 35.4
- HSTPVTPRRLFTSQ [YGL003C 171-184] — higher, 16700
- IAYPFYPFKKLGRQ [YGR165W 32-45] — lower, 813
- IAAPKKPRKPRQTK [YGL025C 241-254] — higher, 3170
- IEQPFGPPKITKDG [YLR259C 61-74] — lower, 149
- IAHPVRPHRAITMT [YBR276C 631-644] — higher, 2660
- HPDPADPAKELELN [YDR037W 377-390] — lower, -0
- HSEPAIPYRETFLS [YNL163C 746-759] — lower, 92.9
- IFDPQDPYRRAQQF [YHR150W 496-509] — lower, 59.9
- HGLPYKPSKLIRIF [YLR224W 329-342] — lower, 747
- HNSPVAPNRYAANL [YBR038W 84-97] — lower, 155
- HEHPSGPLKKLFSD [YIL002C 144-157] — lower, 167
- HSSPIAPSKAKRQR [YCR065W 64-77] — lower, 1350
- HTPPLNPSKKSASI [YOR371C 699-712] — lower, 15.3
- IAYPGDPLRFHSHL [YAR008W 207-220] — lower, 93.2
- HQIPSAPQRLVSII [YMR136W 114-127] — lower, 572
- IELPTQPVRKNPEA [YOR042W 147-160] — lower, 550
- IELPHDPHKHFHRD [YNL091W 543-556] — lower, 0
- HGVPVVPSREVTIN [YER014W 440-453] — lower, 555

Target: T2, Boi2 SH3 (BOI2_YEAST), P39969
Test: SPOT array

Point of comparison: HRGPRRPQKNRYNT [YMR280C 1394-1407], normalised SPOT signal, Boehringer light units (BLU); mean over the file's lines of this peptide 61. Against it:
- IEVPQSPTKNRVKV [YIL150C 61-74] — lower, 19.2
- HLPPPPPPRAQQQQ [YOR329C 664-677] — lower, 15.5
- HLDPEAPDKLLENS [YOR301W 109-122] — higher, 62.5
- HSTPVTPRRLFTSQ [YGL003C 171-184] — higher, 77.8
- IAYPFYPFKKLGRQ [YGR165W 32-45] — lower, 32.7
- IAAPKKPRKPRQTK [YGL025C 241-254] — lower, 53.7
- IEQPFGPPKITKDG [YLR259C 61-74] — lower, 26.4
- IAHPVRPHRAITMT [YBR276C 631-644] — higher, 145
- HPDPADPAKELELN [YDR037W 377-390] — lower, 12.4
- HSEPAIPYRETFLS [YNL163C 746-759] — lower, 14.6
- IFDPQDPYRRAQQF [YHR150W 496-509] — lower, 51.8
- HGLPYKPSKLIRIF [YLR224W 329-342] — lower, 60.3
- HNSPVAPNRYAANL [YBR038W 84-97] — lower, 33.8
- HEHPSGPLKKLFSD [YIL002C 144-157] — lower, -0
- HSSPIAPSKAKRQR [YCR065W 64-77] — higher, 170
- HTPPLNPSKKSASI [YOR371C 699-712] — higher, 82.2
- IAYPGDPLRFHSHL [YAR008W 207-220] — higher, 143
- HQIPSAPQRLVSII [YMR136W 114-127] — lower, 18.8
- IELPTQPVRKNPEA [YOR042W 147-160] — lower, 20.1
- IELPHDPHKHFHRD [YNL091W 543-556] — lower, 23.2
- HGVPVVPSREVTIN [YER014W 440-453] — lower, 33.6

Target: T3, Rvs167 SH3 (RV167_YEAST), P39743
Test: SPOT array

Point of comparison: HRGPRRPQKNRYNT [YMR280C 1394-1407], normalised SPOT signal, Boehringer light units (BLU); mean over the file's lines of this peptide 60.7. Against it:
- IEVPQSPTKNRVKV [YIL150C 61-74] — lower, 27.2
- HLPPPPPPRAQQQQ [YOR329C 664-677] — higher, 1900
- HLDPEAPDKLLENS [YOR301W 109-122] — lower, 29.1
- HSTPVTPRRLFTSQ [YGL003C 171-184] — higher, 282
- IAYPFYPFKKLGRQ [YGR165W 32-45] — lower, 16.3
- IAAPKKPRKPRQTK [YGL025C 241-254] — higher, 95.9
- IEQPFGPPKITKDG [YLR259C 61-74] — lower, 28.2
- IAHPVRPHRAITMT [YBR276C 631-644] — higher, 86.7
- HPDPADPAKELELN [YDR037W 377-390] — lower, 50
- HSEPAIPYRETFLS [YNL163C 746-759] — lower, 35.1
- IFDPQDPYRRAQQF [YHR150W 496-509] — lower, 52.4
- HGLPYKPSKLIRIF [YLR224W 329-342] — higher, 67.7
- HNSPVAPNRYAANL [YBR038W 84-97] — higher, 87.3
- HEHPSGPLKKLFSD [YIL002C 144-157] — lower, 13.3
- HSSPIAPSKAKRQR [YCR065W 64-77] — higher, 561
- HTPPLNPSKKSASI [YOR371C 699-712] — lower, 28.1
- IAYPGDPLRFHSHL [YAR008W 207-220] — lower, 18.3
- HQIPSAPQRLVSII [YMR136W 114-127] — lower, 16
- IELPTQPVRKNPEA [YOR042W 147-160] — lower, 47
- IELPHDPHKHFHRD [YNL091W 543-556] — lower, 20.5
- HGVPVVPSREVTIN [YER014W 440-453] — higher, 82

Target: T4, Yhr016c SH3 (YSC84_YEAST), P32793
Test: SPOT array

Point of comparison: IAAPKKPRKPRQTK [YGL025C 241-254], normalised SPOT signal, Boehringer light units (BLU); mean over the file's lines of this peptide 126. Against it:
- IEVPQSPTKNRVKV [YIL150C 61-74] — higher, 201
- HRGPRRPQKNRYNT [YMR280C 1394-1407] — higher, 161
- HLPPPPPPRAQQQQ [YOR329C 664-677] — higher, 1630
- HLDPEAPDKLLENS [YOR301W 109-122] — higher, 329
- HSTPVTPRRLFTSQ [YGL003C 171-184] — higher, 6510
- IAYPFYPFKKLGRQ [YGR165W 32-45] — higher, 230
- IEQPFGPPKITKDG [YLR259C 61-74] — lower, 51.4
- IAHPVRPHRAITMT [YBR276C 631-644] — higher, 225
- HPDPADPAKELELN [YDR037W 377-390] — higher, 161
- HSEPAIPYRETFLS [YNL163C 746-759] — higher, 634
- IFDPQDPYRRAQQF [YHR150W 496-509] — higher, 316
- HGLPYKPSKLIRIF [YLR224W 329-342] — higher, 222
- HNSPVAPNRYAANL [YBR038W 84-97] — higher, 244
- HEHPSGPLKKLFSD [YIL002C 144-157] — lower, -0
- HSSPIAPSKAKRQR [YCR065W 64-77] — higher, 142
- HTPPLNPSKKSASI [YOR371C 699-712] — lower, 90.5
- IAYPGDPLRFHSHL [YAR008W 207-220] — higher, 196
- HQIPSAPQRLVSII [YMR136W 114-127] — higher, 216
- IELPTQPVRKNPEA [YOR042W 147-160] — lower, 112
- IELPHDPHKHFHRD [YNL091W 543-556] — lower, 77.2
- HGVPVVPSREVTIN [YER014W 440-453] — higher, 765

Target: T5, Boi1 SH3 (BOI1_YEAST), P38041
Test: SPOT array

Point of comparison: HTPPLNPSKKSASI [YOR371C 699-712], normalised SPOT signal, Boehringer light units (BLU); mean over the file's lines of this peptide 107. Against it:
- IEVPQSPTKNRVKV [YIL150C 61-74] — higher, 130
- HRGPRRPQKNRYNT [YMR280C 1394-1407] — lower, 9.8
- HLPPPPPPRAQQQQ [YOR329C 664-677] — lower, 61
- HLDPEAPDKLLENS [YOR301W 109-122] — higher, 161
- HSTPVTPRRLFTSQ [YGL003C 171-184] — higher, 2290
- IAYPFYPFKKLGRQ [YGR165W 32-45] — lower, 75.8
- IAAPKKPRKPRQTK [YGL025C 241-254] — lower, 49.7
- IEQPFGPPKITKDG [YLR259C 61-74] — higher, 119
- IAHPVRPHRAITMT [YBR276C 631-644] — higher, 3310
- HPDPADPAKELELN [YDR037W 377-390] — lower, 72
- HSEPAIPYRETFLS [YNL163C 746-759] — lower, 83.3
- IFDPQDPYRRAQQF [YHR150W 496-509] — lower, 53.2
- HGLPYKPSKLIRIF [YLR224W 329-342] — lower, 80.3
- HNSPVAPNRYAANL [YBR038W 84-97] — higher, 157
- HEHPSGPLKKLFSD [YIL002C 144-157] — lower, 1.6
- HSSPIAPSKAKRQR [YCR065W 64-77] — higher, 673
- IAYPGDPLRFHSHL [YAR008W 207-220] — lower, 12
- HQIPSAPQRLVSII [YMR136W 114-127] — lower, 86.7
- IELPTQPVRKNPEA [YOR042W 147-160] — lower, 41.7
- IELPHDPHKHFHRD [YNL091W 543-556] — higher, 126
- HGVPVVPSREVTIN [YER014W 440-453] — higher, 140
